Test results from patent US20170196940A1 (RESEARCH FOUNDATION FOR THE STATE UNIVERSITY OF NEW YORK, published 2017).
Positions of bridges follow the written chain, without caps; N, C: chain ends. Non-standard residues stand in square brackets, D forms with d. No end group written: not given here. Bph = 4,4'-bis(methyl)biphenyl crosslink between two cysteines (CL-1)

What was measured:
Experiment in all cases: cell-based or functional assay
[1] = biological target: T1, human glucagon receptor (GCGR) (human, UniProt P47871 26-477)
T1 sequence (P47871 26-477): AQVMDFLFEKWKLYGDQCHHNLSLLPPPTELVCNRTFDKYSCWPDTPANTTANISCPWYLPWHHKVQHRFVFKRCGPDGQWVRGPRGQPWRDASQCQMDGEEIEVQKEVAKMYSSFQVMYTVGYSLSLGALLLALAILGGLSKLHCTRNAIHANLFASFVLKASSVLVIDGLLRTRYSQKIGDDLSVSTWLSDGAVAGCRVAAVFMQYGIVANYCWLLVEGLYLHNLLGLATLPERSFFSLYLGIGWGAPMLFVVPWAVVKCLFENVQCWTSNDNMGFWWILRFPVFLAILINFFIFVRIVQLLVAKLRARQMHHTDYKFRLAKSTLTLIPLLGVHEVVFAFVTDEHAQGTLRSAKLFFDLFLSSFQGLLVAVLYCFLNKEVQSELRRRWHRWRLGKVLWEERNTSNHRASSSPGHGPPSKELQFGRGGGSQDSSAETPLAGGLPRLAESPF

[2] = biological target: T2, human glucagon-like peptide 1 receptor (GLP-1R) (human, UniProt P43220 24-463)
[3] = biological target: T1, human glucagon receptor (GCGR); remark: listed apart in the source
[4] = biological target: T2, human glucagon-like peptide 1 receptor …; remark: listed apart in the source

Binder | Agonist activity (nM), EC50, CRE-luciferase reporter in HEK293 cells overexpressing the receptor [3] [nM] | Agonist activity (nM), EC50, CRE-luciferase reporter in HEK293 cells overexpressing the receptor [4] [nM] | also measured
H[dS]QGTFTSDYSKYLDSCRAQDFVCWLMNTKRNRNNIA-NH2 (cysteine pairing not given here) [peptide 4] | 30 | ~500 | fold increase in activity against peptide 1, CRE-luciferase reporter assay [1]: ~2 fold; fold increase in activity against peptide 1, CRE-luciferase reporter assay [2]: ~2 fold
H[dS]QGTFTSDYSKYLDECRAQDFVCWLMNTKRNRNNIA-NH2 (cysteine pairing not given here) [peptide 5] |  | ~400 | 
H[dS]QGTFTSDYSKYLDECAAKEFICWLMNTKRNRNNIA-NH2 (cysteine pairing not given here) [peptide 7] | 30 |  | fold higher potency against peptide 5, CRE-luciferase reporter assay [2]: > 80 fold
H[dS]QGTFTSDYSKYLDECAVRLFICWLMNTKRNRNNIA-NH2 (cysteine pairing not given here) [peptide 8] | 1000 |  | fold higher potency against peptide 5, CRE-luciferase reporter assay [2]: > 80 fold
H[dS]QGTFTSDYSKYLDECAAKEFICWLMNTKRNRNNIA-NH2 (linker 17-24 via Bph) [peptide 9] | 0.7 | 0.2 | fold increase in activity against linear peptide 7, CRE-luciferase reporter assay [1]: 40 fold; fold increase in activity against linear peptide 7, CRE-luciferase reporter assay [2]: 80 fold
H[dS]QGTFTSDYSKYLDS[dC]RAQDFVCWLMNTKRNRNNIA-NH2 (linker 17-24 via Bph) [peptide 3] | 3 | ~500 | fold increase in activity against linear peptide 1, CRE-luciferase reporter assay [1]: 16 fold; fold increase in activity against linear peptide 1, CRE-luciferase reporter assay [2]: 2 fold
H[dS]QGTFTSDYSKYLDSRRAQ[dC]FVQWLMCTKRNRNNIA-NH2 (cysteine pairing not given here) [peptide 2] | > 1000 | > 2000 | 
